Measured values from paper PMC5352143.
Where “and” joins values, the source holds several entries; their conditions need not be identical. Equal entries are not always repeated. Where two headings read alike, the source gives them in different places.

Tests used:
[1] = target: transferrin (Homo sapiens) (UniProt P02787); details: cited from earlier work
[2] = target: intact LbpB with N-terminal biotin acceptor peptide, fused to MBP (BLI construct) (Neisseria meningitidis strain MC58); assay: BLI; Octet RED 96; biotinylated MBP-LbpB constructs loaded from crude E. coli extracts on streptavidin sensors; holo-hLf 10-800 nM in 1 X PBS pH 7.4, 0.002% Tween-20, 0.1 mg/mL BSA; steady-state fit, apparent KD
[3] = target: LbpB with the anionic loops removed (LbpB-lgsm), N-terminal biotin acceptor peptide, fused to MBP (BLI construct) (Neisseria meningitidis strain MC58); assay: as above
[4] = target: LbpB N-terminal lobe with N-terminal biotin acceptor peptide, fused to MBP (BLI construct) (Neisseria meningitidis strain MC58); assay: as above
[5] = target: MBP-LbpB (lactoferrin binding protein B, N. meningitidis MC58, without amino acids 1-15) (Neisseria meningitidis strain MC58); assay: cross-linking; XL-MS: LbpB (MBP fusion or TEV-cleaved) and hLf equimolar in 50 mM Tris-HCl, 50 mM NaCl, pH 7.4, 4 h RT, DSS 30 min, bands cut from SDS-PAGE, LC-MS/MS
[6] = target: MBP-LbpB (lactoferrin binding protein B, N. meningitidis MC58, without amino acids 1-15) (Neisseria meningitidis strain MC58); assay: as above; remark: listed apart in the source
[7] = target: LbpB (N. meningitidis MC58, without amino acids 1-15) after TEV cleavage of MBP-LbpB (Neisseria meningitidis strain MC58); assay: as above

Sequence of transferrin (Homo sapiens) (P02787 20-698): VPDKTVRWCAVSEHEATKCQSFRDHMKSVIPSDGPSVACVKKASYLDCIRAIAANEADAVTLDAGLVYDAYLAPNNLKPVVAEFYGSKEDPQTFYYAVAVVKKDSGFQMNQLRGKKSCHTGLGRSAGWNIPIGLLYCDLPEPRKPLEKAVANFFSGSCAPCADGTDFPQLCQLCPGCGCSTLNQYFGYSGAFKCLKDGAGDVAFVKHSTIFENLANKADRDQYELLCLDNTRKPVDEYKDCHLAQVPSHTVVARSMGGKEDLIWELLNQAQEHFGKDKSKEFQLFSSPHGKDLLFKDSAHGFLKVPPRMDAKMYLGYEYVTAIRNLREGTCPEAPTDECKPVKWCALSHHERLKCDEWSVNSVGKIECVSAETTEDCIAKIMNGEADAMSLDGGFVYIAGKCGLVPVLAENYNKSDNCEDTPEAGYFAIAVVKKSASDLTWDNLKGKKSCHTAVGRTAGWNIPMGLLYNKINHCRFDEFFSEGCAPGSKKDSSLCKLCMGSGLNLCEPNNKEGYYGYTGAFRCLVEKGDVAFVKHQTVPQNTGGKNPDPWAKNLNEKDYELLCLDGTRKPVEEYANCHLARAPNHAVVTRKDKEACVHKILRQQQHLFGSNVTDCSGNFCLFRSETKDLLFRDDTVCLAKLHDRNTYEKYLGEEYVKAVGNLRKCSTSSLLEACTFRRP

Substance | Kd [1] [nM] | Kd [2] [nM] | Kd [3] [nM] | Kd [4] [nM] | stoichiometry N [5] | stoichiometry N [6] | stoichiometry N [7]
TbpB (from UniProt Q09057) | 50 | – | – | – | – | – | –
holo human lactoferrin (iron-loaded hLf) (ligand) | – | 72.8 | 140 | 126 | 2 hLf:LbpB | 1 hLf:LbpB | 1 hLf:LbpB and 2 hLf:LbpB
